Reference: patent publication US20220306733A1 (ITEOS BELGUIM, published 2022)

T1: human TIGIT on cells (Jurkat-hTIGIT, human primary T cells) (human, UniProt Q495A1 22-244)
T1 sequence (looked up): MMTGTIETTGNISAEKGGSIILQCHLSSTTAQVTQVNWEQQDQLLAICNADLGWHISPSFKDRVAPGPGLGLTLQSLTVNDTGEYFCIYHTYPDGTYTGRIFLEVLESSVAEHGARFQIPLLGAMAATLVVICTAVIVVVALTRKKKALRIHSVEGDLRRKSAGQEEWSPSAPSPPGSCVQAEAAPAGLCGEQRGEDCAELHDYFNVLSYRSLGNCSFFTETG

T2: mouse TIGIT on cells (Jurkat-mTIGIT) (mouse, UniProt P86176 29-249)
T2 construct: whole, on cells
T2 sequence (looked up): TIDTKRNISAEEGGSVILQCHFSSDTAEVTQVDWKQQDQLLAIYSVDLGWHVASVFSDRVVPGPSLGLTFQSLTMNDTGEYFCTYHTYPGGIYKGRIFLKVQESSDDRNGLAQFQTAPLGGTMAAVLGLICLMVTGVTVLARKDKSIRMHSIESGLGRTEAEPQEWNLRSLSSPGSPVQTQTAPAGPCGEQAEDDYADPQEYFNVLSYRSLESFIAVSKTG


What was measured:
[1] = biological target: T1, human TIGIT on cells (Jurkat-hTIGIT, …); assay: cell-based or functional assay
[2] = biological target: T1, human TIGIT on cells (Jurkat-hTIGIT, …); assay: cell-based or functional assay; remark: listed apart in the source
[3] = biological target: T1, human TIGIT on cells (Jurkat-hTIGIT, …); assay: flow cytometry on Jurkat-hTIGIT, 100 nM antibody, vs untransfected Jurkat
Method: (§1) Antibodies were incubated with the cells for 20 min at 4° C. in FACS buffer. […] Geometric mean fluorecence intensity was analysed using LSR BD Fortessa. Cell binding was recorded as the median florescence intensity of PE on the transfected line compared to the un-transfected line for each antibody (Table 3).

[4] = biological target: T2, mouse TIGIT on cells (Jurkat-mTIGIT); assay: flow cytometry on Jurkat-mTIGIT, 100 nM antibody, vs untransfected Jurkat
Method: as §1

[5] = biological target: T1, human TIGIT on cells (Jurkat-hTIGIT, …); assay: cell-based or functional assay; remark: listed apart in the source

| Binder | EC50 (nM), luciferase, Jurkat-hTIGIT + CHO-CD155 [1] | luciferase induction over isotype control (fold change), Jurkat-hTIGIT + CHO-CD155 [1] | EC50 (nM), IFNg, human primary CD8+ T cells + CHO-CD155 [2] | IFNg induction over isotype control (fold change), human primary CD8+ T cells + CHO-CD155 [2] | Cell binding FON (Fold Over Negative) [3] | Cell binding FON (Fold Over Negative) [4] | luciferase induction over isotype control (fold change), Jurkat-hTIGIT + CHO-TCR-CD155 bioassay, 133 nM antibody [5] |
| --- | --- | --- | --- | --- | --- | --- | --- |
| comparative anti-TIGIT antibody 4.1D3.Q1E (antibody, human IgG1, V domains shown) VH: EVQLQQSGPGLVKPSQTLSLTCAISGDSVSSNSAAWNWIRQSPSRGLEWLGKTYYRFKWYSDYAVSVKGRITINPDTSKNQFSLQLNSVTPEDTAVFYCTRESTTYDLLAGPFDYWGQGTLVTVSS VL: not shown | 10.3 nM | 5.8 fold | 1.43 nM | 2.9 fold | – | – | – |
| anti-TIGIT antibody clone 26486 (antibody, V domains shown, Naive parent clone, VH4-0B; human IgG; Fab for 'Fab KD' columns) VH: QVQLQESGPGLVKPSETLSLTCAVSGYSISSGYYWAWIRQPPGKGLEWIGSIYHSGSTYYNPSLKSRVTISVDTSKNQFSLKLSSVTAADTAVYYCAIEGANYYDFGYVAFDIWGQGTMVTVSS VL: EIVMTQSPATLSVSPGERATLSCRASQSVSSNLAWYQQKPGQAPRLLIYGASTRATGIPARFSGSGSGTEFTLTISSLQSEDFAVYYCQQSPPWPRTFGGGTKVEIK | – | – | – | – | 143 fold over negative | 199 fold over negative | 1.9 fold |
| anti-TIGIT antibody clone 29499 (antibody, V domains shown, human IgG; Fab for 'Fab KD' columns) VH: QLQLQESGPGLVKPSETLSLTCTVSGGSISSSRYYWAWIRQPPGKGLEWIGSIGTSGSTYYNPSLKSRVTISVDTSKNQFSLKLSSVTATDTAVYYCAIEGANFRDFGYVAFDIWGQGTMVTVSS VL: EIVMTQSPATLSVSPGERATLSCRASQSVSSNLAWYQQKPGQAPRLLIYGASTRATGIPARFSGSGSGTEFTLTISSLQSEDFAVYYCQQSPPWPRTFGGGTKVEIK | – | – | – | – | 164 fold over negative | 541 fold over negative | 3.68 fold |
| anti-TIGIT antibody clone 32919 (antibody, V domains shown, L1/L2/L3 optimised from 31288; human IgG) VH: QLQLQESGPGLVKPSETLSLTCTVSGGSISSGSYYLAWIRQPPGKGLEWIGSIFRSGSTYYNPSLESRVTISVDTSKNQFSLKLSSVTAADTAVYYCAIEGANFKDFGYVAFDIWGQGTTVTVSS VL: EIVLTQSPATLSLSPGERATLSCRASQSVSSYLAWYQQKPGQAPRLLIYDASNRATGIPARFSGSGSGTDFTLTISSLEPEDFAVYYCQQENPRPRTFGGGTKVEIK | – | – | – | – | 680 fold over negative | – | – |
| anti-TIGIT antibody clone 29494 (antibody, V domains shown, human IgG; Fab for 'Fab KD' columns) VH: QVQLQESGPGLVKPSETLSLTCTVSGGSISSGSYYLAWIRQPPGKGLEWIGSIFRSGSTYYNPSLESRVTISVDTSKNQFSLKLSSVTAADTAVYYCAIEGANFKDFGYVAFDIWGQGTMVTVSS VL: EIVMTQSPATLSVSPGERATLSCRASQSVSSNLAWYQQKPGQAPRLLIYGASTRATGIPARFSGSGSGTEFTLTISSLQSEDFAVYYCQQSPPWPRTFGGGTKVEIK | – | – | – | – | 164 fold over negative | 511 fold over negative | 3.42 fold |
| anti-TIGIT antibody clone 32931 (antibody, V domains shown, L1/L2/L3 optimised from 31288; human IgG) VH: QLQLQESGPGLVKPSETLSLTCTVSGGSISSGSYYLAWIRQPPGKGLEWIGSIFRSGSTYYNPSLESRVTISVDTSKNQFSLKLSSVTAADTAVYYCAIEGANFKDFGYVAFDIWGQGTTVTVSS VL: EIVMTQSPATLSVSPGERATLSCRASKSVSSNLAWYQQKPGQAPRLLIYFASTRATGIPARFSGSGSGTEFTLTISSLQSEDFAVYYCQQTSPWPRTFGGGTKVEIK | – | – | – | – | 741 fold over negative | – | – |
| anti-TIGIT antibody clone 29520 (antibody, V domains shown, human IgG; Fab for 'Fab KD' columns) VH: QVQLVESGGGLVQPGRSLRLSCAASGFTFRDYAMHWVRQAPGKGLEWVSGITWNSGLIGYADSVKGRFTISRDNAKNSLYLQMNSLRAEDTALYYCAKPVPRLRGLDVWGQGTMVTVSS VL: DIQLTQSPSSVSASVGDRVTITCRASQGISSWLAWYQQKPGKAPKLLIYGASSLQSGVPSRFSGSGSGTDFTLTISSLQPEDFATYYCQQAFYLPWTFGGGTKVEIK | – | – | – | – | 166 fold over negative | 535 fold over negative | 2.52 fold |
| anti-TIGIT antibody clone 29523 (antibody, V domains shown, human IgG; Fab for 'Fab KD' columns) VH: EVQLVESGGGVVQPGRSLRLSCAASGFTFGSYYMHWVRQAPGKGLEWVAVIWPDGSNKLYADSVKGRFTISRDNSKNTLYLQMNSLRAEDTALYYCAKPVPKSRALDVWGQGTMVTVSS VL: DIQLTQSPSSVSASVGDRVTITCRASQGISSWLAWYQQKPGKAPKLLIYGASSLQSGVPSRFSGSGSGTDFTLTISSLQPEDFATYYCQQAFYLPWTFGGGTKVEIK | – | – | – | – | 150 fold over negative | 502 fold over negative | 2.4 fold |
| anti-TIGIT antibody clone 29527 (antibody, V domains shown, human IgG) VH: QVQLVESGGGVVQPGRSLRLSCAASGFTFSSSYMHWVRQAPGKGLEWVAVIGADGSNKYYADSVEGRFTISRDNSKNTLYLQMNSLRAEDTALYYCAKPVPRRRGLDVWGQGTMVTVSS VL: DIQLTQSPSSVSASVGDRVTITCRASQGISSWLAWYQQKPGKAPKLLIYGASSLQSGVPSRFSGSGSGTDFTLTISSLQPEDFATYYCQQAFYLPWTFGGGTKVEIK | – | – | – | – | 142 fold over negative | 414 fold over negative | 2.96 fold |
| anti-TIGIT antibody clone 29478 (antibody, V domains shown, human IgG; Fab for 'Fab KD' columns) VH: EVQLVESGGGVVQPGRSLRLSCAASGFTFESYGMVWVRQAPGKGLEWVASILYDGSNRYYADSVKGRFTVSRDNSKNTLYLQMNSLRAEDTAVYYCARVSYYYDSVELRWAEYFQHWGQGTLVTVSS VL: EIVLTQSPATLSLSPGERATLSCRASQSVSSYLAWYQQKPGQAPRLLIYDASKRATGIPARFSGSGSGTDFTLTISSLEPEDFAVYYCQQVHNFPLTFGGGTKVEIK | – | – | – | – | 182 fold over negative | 500 fold over negative | 3.57 fold |
| anti-TIGIT antibody clone 26521 (antibody, V domains shown, Naive parent clone, VH1-69; human IgG; Fab for 'Fab KD' columns) VH: QVQLVQSGAEVKKPGSSVKVSCKASGGTFSSYAISWVRQAPGQGLEWMGGIIPIFGTANYAQKFQGRVTITADESTSTAYMELSSLRSEDTAVYYCARLHLGSSAYYGMDVWGQGTTVTVSS VL: DIQMTQSPSSLSASVGDRVTITCRASQSISSYLNWYQQKPGKAPKLLIYAASSLQSGVPSRFSGSGSGTDFTLTISSLQPEDFATYYCQQRYVFPPTFGGGTKVEIK | – | – | – | – | 146 fold over negative | 218 fold over negative | 2.66 fold |
| anti-TIGIT antibody clone 29513 (antibody, V domains shown, human IgG; Fab for 'Fab KD' columns) VH: QVQLVQSGAEVKKPGSSVKVSCKASGGTFQNYAISWVRQAPGQGLEWMGVIVPIFGTANYAQKFQGRVTVTADESTSTAYMELSSLRSEDTAVYYCARLHLGQKAYYGMDVWGQGTTVTVSS VL: DIQMTQSPSSLSASVGDRVTITCRASQSISSYLNWYQQKPGKAPKLLIYAASSLQSGVPSRFSGSGSGTDFTLTISSLQPEDFATYYCQQRYVFPPTFGGGTKVEIK | – | – | – | – | 156 fold over negative | 406 fold over negative | 3.26 fold |
